Residue numbers refer to the chain shown, from its start. Names and notes keep the numbering of the source.
Tests used:
[1] = target: T1, Kitasatospora setae crotonyl-CoA carboxylase/reductase (KsCcr) variant His365Asn (H365N), SEQ ID NO: 19 (Kitasatospora setae, UniProt E4N096, H365N); assay: Steady-state kinetics of the reductive aldol reaction (crotonyl-CoA + formaldehyde + NADPH); type: biochemical
T1 construct: gene provided by JGI
T1 sequence (E4N096 1-445 H365N): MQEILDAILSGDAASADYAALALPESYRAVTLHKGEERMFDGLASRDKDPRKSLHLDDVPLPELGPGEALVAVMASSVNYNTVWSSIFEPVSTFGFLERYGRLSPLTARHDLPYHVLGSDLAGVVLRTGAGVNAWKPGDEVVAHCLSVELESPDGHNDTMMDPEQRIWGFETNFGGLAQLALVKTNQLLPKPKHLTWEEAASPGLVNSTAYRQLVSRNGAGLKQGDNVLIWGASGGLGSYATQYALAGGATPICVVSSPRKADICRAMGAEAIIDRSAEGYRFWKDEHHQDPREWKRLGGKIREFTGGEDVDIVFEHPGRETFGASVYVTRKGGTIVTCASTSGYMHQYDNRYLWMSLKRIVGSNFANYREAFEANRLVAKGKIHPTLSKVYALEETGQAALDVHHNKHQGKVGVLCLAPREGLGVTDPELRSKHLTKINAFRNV
Procedure: His-tagged KsCcr and its variants were expressed in E. coli BL21 (DE3). Cells in terrific broth were grown at 37° C. to an OD600=0.8-1.0 upon which expression for 12-16 h at 23° C. was induced by the addition of 500 μM IPTG (Isopropyl-D-β-thiogalactopyranoside). Cells were harvested for 15 min at 7500× g at 4° C. then resuspended in 2 mL of buffer A (50 mM Tris, 500 mM NaCl, 1 M L-Proline, pH=7.5) per gram of pellet. The suspension was treated with […] of DNAse I, 5 mM MgCl2, 10 μg/ml of lysozyme and incubated on ice for 20 min upon which cells were lysed using a sonicator. The lysate was clarified at 45000× g at 4° C. for 40 min and then loaded onto a pre-equilibrated 1 mL HisTrap FF column and washed with 15% buffer B (50 mM Tris, 500 mM NaCl, 1 M L-Proline, 500 mM imidazole, pH=7.5) for 20-30 column volumes until the UV 280 nm reached the baseline level. […]
Formaldehyde stock solution concentration was determined by following the formation of phenylhydrazone at 368 nm (εPhenylhydrazone,368 nm=6.1 mM^−1 cm^−1). […]
For reactions in which the full conversion to the aldol product was achieved assays were performed on a Cary-60 UV/Vis spectrophotometer (Agilent) at 30° C. using quartz cuvettes (1 mm, 3 mm or 10 mm path length; Hellma). […] Kinetic parameters for one substrate were determined by varying its concentration while the others were kept constant at 10 times their KM value.

[2] = substrate: NC(=O)C1=CN([C@@H]2O[C@H](COP(=O)(O)OP(=O)(O)OC[C@H]3O[C@@H](n4cnc5c(N)ncnc54)[C@H](OP(=O)(O)O)[C@@H]3O)[C@@H](O)[C@H]2O)C=CC1; assay: cells, lysate or membranes named; conditions: other: apparent KM, 100 mM K2HPO4 pH 8.0, 30 °C, other substrates at 10 times KM, mean ± standard error
[3] = substrate: C/C=C/C(=O)SCCNC(=O)CCNC(=O)[C@H](O)C(C)(C)COP(=O)(O)OP(=O)(O)OC[C@H]1O[C@@H](n2cnc3c(N)ncnc32)[C@H](O)[C@@H]1OP(=O)(O)O; assay: cells, lysate or membranes named; type: biochemical, Kitasatospora setae; conditions: other substrates at 10 times KM, mean ± standard error
Procedure: (§1) His-tagged KsCcr and its variants were expressed in E. coli BL21 (DE3). Cells in terrific broth were grown at 37° C. to an OD600=0.8-1.0 upon which expression for 12-16 h at 23° C. was induced by the addition of 500 μM IPTG (Isopropyl-D-β-thiogalactopyranoside). Cells were harvested for 15 min at 7500× g at 4° C. then resuspended in 2 mL of buffer A (50 mM Tris, 500 mM NaCl, 1 M L-Proline, pH=7.5) per gram of pellet. The suspension was treated with 10 mg/mL of DNAse I, 5 mM MgCl2, 10 μg/ml of lysozyme and incubated on ice for 20 min upon which cells were lysed using a sonicator. The lysate was clarified at 45000× g at 4° C. for 40 min and then loaded onto a pre-equilibrated 1 mL HisTrap FF column and washed with 15% buffer B (50 mM Tris, 500 mM NaCl, 1 M L-Proline, 500 mM imidazole, pH=7.5) for 20-30 column volumes until the UV 280 nm reached the baseline level. The protein was eluted by applying 100% buffer B, collected then pooled and desalted into 12.5 mM Tris, 125 mM NaCl, 1 M L-Proline pH=7.5. […] The protein was flash frozen in N2 (I) and stored at −80° C. if not immediately used for assays.
(§2) Assays were performed on a Cary-60 UV/Vis spectrophotometer (Agilent) at 30° C. using quartz cuvettes (10 mm path length; Hellma) contained K2HPO4 pH=8.0 and 3 mM phenylhydrazine.
(§3) For reactions in which the full conversion to the aldol product was achieved assays were performed on a Cary-60 UV/Vis spectrophotometer (Agilent) at 30° C. using quartz cuvettes (1 mm, 3 mm or 10 mm path length; Hellma). Reactions were performed in 100 mM K2HPO4 pH=8.0. Kinetic parameters for one substrate were determined by varying its concentration while the others were kept constant at 10 times their KM value. […] For reactions where both butyryl-CoA and the aldol product where formed the steady state parameters were determined using a discontinuous assay. Reactions of 100 μL volume were performed in 100 mM K2HPO4 pH=8.0 at 30° C. and each concentration was assayed in triplicates. Samples of 20 μL reaction were quenched with 2 μL of 50% formic acid and centrifuged for 10 min at 17′000 g at 4° C. 10 μL of this solution were diluted in 40 μL of 500 mM Tris HCl pH=7 and incubated overnight at room temperature. Samples were analyzed using by HPLC over an Agilent Eclipse Plus C18, 3.5 μm 100 Å, 100×2.1 mm, 4.6×100 mm column using 5% to 30% acetonitrile gradient over 7.5 min with 25 mM ammonium formate pH=8.1 as the aqueous phase.

[4] = substrate: C=O; assay: cells, lysate or membranes named; type: biochemical, Kitasatospora setae; conditions: other: calculated with K = 1000 for the equilibrium between formaldehyde and its methylene diol form, pH 8.0, 30 °C
Procedure: as §1, §2, §3

[5] = substrate: NC(=O)C1=CN([C@@H]2O[C@H](COP(=O)(O)OP(=O)(O)OC[C@H]3O[C@@H](n4cnc5c(N)ncnc54)[C@H](OP(=O)(O)O)[C@@H]3O)[C@@H](O)[C@H]2O)C=CC1; assay: cells, lysate or membranes named; type: biochemical, Kitasatospora setae; conditions: other: 100 mM K2HPO4 pH 8.0, 30 °C, other substrates at 10 times KM, mean ± standard error
Procedure: as §1, §2, §3

KsCcr [6] = assay: HPLC analysis of reaction products: 2-HMB-CoA formed over total products from crotonyl-CoA and formaldehyde; type: biochemical, Kitasatospora setae; conditions: for Ratio of 2-HMB-CoA formed over total products: triplicates, mean ± standard deviation, values given as %
Excerpt: KsCcr wild-type (WT) natively promotes the NADPH-dependent reductive carboxylation of crotonyl-CoA into ethylmalonyl-CoA. […] Under these conditions, neither ethylmalonyl-CoA (carboxylation product) nor butyryl-CoA (reduction side product) were detected with LC-MS (see Table 2 further below). […] The compound was isolated and its structure was further verified using 2-dimensional NMR and high-resolution MS experiments. […] The newly introduced carbon was also observed in the ^13C-NMR experiment, confirming formation of aldol product 2-HMB-CoA by KsCcr.
The reaction was diluted 10 times into 5% methanol/Buffer 8.1 and analyzed by HPLC over an Agilent Eclipse Plus C18, 3.5 μm 100 Å, 100×2.1 mm, […] column using 5% to 30% acetonitrile gradient over 7.5 min with 25 mM ammonium formate pH=8.1 as the aqueous phase.

KsCcr [7] = assay: Native reductive carboxylation of crotonyl-CoA with CO2; type: biochemical, Kitasatospora setae; conditions: CO2 as electrophile
[8] = other: apparent KM, 100 mM K2HPO4 pH 8.0, 30 °C
[9] = other: 100 mM K2HPO4 pH 8.0, 30 °C

With `C=O` [formaldehyde] the “apparent catalytic rate relative to WT enzyme” value ([1]; decreased to % of the WT enzyme) was 10% and the “apparent KM for formaldehyde, increase compared to WT” value ([1]; fold increase compared to WT) was “two-fold”.

B1: Kitasatospora setae crotonyl-CoA carboxylase/reductase (KsCcr), wild type (WT), SEQ ID NO: 1 (Kitasatospora setae KM-6054) (protein)
chain: T1 sequence (E4N096 1-445 H365N) with N365H
notes: gene provided by JGI
B1 gave a Km [2] of 389 ± 49 µM, a Km [3, 8] of 33 ± 4 µM and a kcat [3, 8] of 30 ± 1 s⁻¹.

B2: Kitasatospora setae crotonyl-CoA carboxylase/reductase (KsCcr) variant His365Asn (H365N), SEQ ID NO: 19 (Kitasatospora setae KM-6054; H365N) (protein)
chain: T1 sequence (E4N096 1-445 H365N)
notes: gene provided by JGI
B2 was tested, and the Km [3, 9] was 69 ± 17 µM, the kcat [3, 9] was 3.1 ± 0.2 s⁻¹ and the Km [4] was 66 ± 23 µM. It also gave a kcat [4] of 3.1 ± 0.2 s⁻¹ and a Km [5] of 16 ± 7 µM.

B3: KsCcr variant Asn81Leu: KsCcr active site variant Asn81Leu, SEQ ID NO: 20 (protein)
chain: T1 sequence (E4N096 1-445 H365N) with N81L, N365H
modifications: KsCcr variant Asn81Leu
For B3, the “Ratio of 2-HMB-CoA formed over total products” value (“Ratio of 2-HMB-CoA formed” below) (KsCcr [6]; 5 mM formaldehyde) was 35 ± 0, the “2-HMB-CoA produced (reductive aldol product)” value (KsCcr [6]; 75 mM formaldehyde) was “up to 64%” and the “Ratio of 2-HMB-CoA formed” value (KsCcr [6]; 75 mM formaldehyde) was 64 ± 2. The “carboxylation of crotonyl-CoA” value (KsCcr [7]; C2-ene adduct accumulates) was “completely impaired”.

B4: KsCcr variant Phe170Ala: KsCcr variant Phe170Ala, SEQ ID NO: 23 (protein)
chain: T1 sequence (E4N096 1-445 H365N) with F170A, N365H
modifications: KsCcr variant Phe170Ala
In the case of B4, the “Ratio of 2-HMB-CoA formed” value (KsCcr [6]; 5 mM formaldehyde) is reported as 17 ± 0, the “2-HMB-CoA produced (reductive aldol product)” value (KsCcr [6]; 75 mM formaldehyde) is reported as “up to 64%” and the “Ratio of 2-HMB-CoA formed” value (KsCcr [6]; 75 mM formaldehyde) is reported as 64 ± 0. The reductive carboxylation (KsCcr [7]) was 17%.

From patent US20250250593A1, “METHOD FOR PREPARING ALPHA-BRANCHED BETA'-HYDROXY CARBONYL COMPOUNDS BY ENZYMATIC-CATALYZED REDUCTIVE ALDOL REACTION” (Max-Planck-Gesellschaft zur Förderung der Wissenschaften …, priority 2022, published 2025)
